B1: HES-GCSF 50/0.7: hG-CSF conjugated with AldehydoHES50/0.7 of example 6.1(j), prepared in example 6.2(b) (conjugate, UniProt P09919 31-207, looked up)
Granulocyte …: TPLGPASSLPQSFLLKCLEQVRKIQGDGAALQEKLVSECATYKLCHPEELVLLGHSLGIPWAPLSSCPSQALQLAGCLSQLHSGLFLYQGLLQALEGISPELGPTLDTLQLDVADFATTIWQQMEELGMAPALQPTQGAMPAFASAFQRRAGGVLVASHLQSFLEVSYRVLRHLAQP
modifications: hydroxyethyl starch conjugate HES50/0.7
B2: Neupogen: non-modified Neupogen (Amgen), rhG-CSF filgrastim, non-glycosylated, E. coli (protein, UniProt P09919 31-207, looked up)
Granulocyte …: B1 Granulocyte …
modifications: filgrastim, N-terminal Met
notes: non-modified Neupogen (Amgen), rhG-CSF filgrastim, non-glycosylated, E. coli
B3: HES-GCSF 30/0.4: hG-CSF conjugated with AldehydoHES30/0.4 of example 6.1(f), prepared in example 6.2(d) (conjugate, UniProt P09919 31-207, looked up)
Granulocyte …: B1 Granulocyte …
modifications: hydroxyethyl starch conjugate HES30/0.4
B4: HES-GCSF 10/0.7: hG-CSF conjugated with AldehydoHES10/0.7 of example 6.1(d), prepared in example 6.2(b) (conjugate, UniProt P09919 31-207, looked up)
Granulocyte …: B1 Granulocyte …
modifications: hydroxyethyl starch conjugate HES10/0.7
B5: HES-GCSF 10/0.4: hG-CSF conjugated with AldehydoHES10/0.4 of example 6.1(b), prepared in example 6.2(b) (conjugate, UniProt P09919 31-207, looked up)
Granulocyte …: B1 Granulocyte …
modifications: hydroxyethyl starch conjugate HES10/0.4
B6: Mock-incubation: reaction control: hG-CSF incubated with 197 mg/ml non-functionalized HES50/0.7 (MW 47,000 D, DS 0.76) (protein, UniProt P09919 31-207, looked up)
Granulocyte …: B1 Granulocyte …
modifications: mixed with non-functionalized HES
B7: Neulasta: non-modified Neulasta (Amgen) (conjugate, UniProt P09919 31-207, looked up)
Granulocyte …: B1 Granulocyte …
modifications: pegfilgrastim; 20 kDa PEG

System: not given
Assay: not given
Conditions: cited from earlier work

| Molecule | circulatory activity half-life in vivo |
| --- | --- |
| activated protein C | less than 30 min |

System: not listed separately
Assay: In-vivo half-life of alpha1AT samples in mice (alpha1AT-ELISA)
Conditions: 100 μl of 50 μg/ml i.v. tail vein, female BALB/c mice
Experimental: Female mice aged 8-10 weeks (BALB/cOlaHsd, Harlan GmbH, Borchen, Germany) were utilized as test organism (42 mice, 14 per sample). The “is bodyweight” of each animal was detected right before administration of the different sample solutions. 100 μl of a 50 μg/ml solution of the samples outlined below in a puffer pH=7.2 (20 mmol sodium phosphate, 150 mmol sodium chloride) were injected intravenously in the tail vein of the mice.
At 1, 2, 4, 10, 24, 31, […], hours after injection, two mice of each group were killed and whole blood samples (˜500 μl) were withdrawn from the heart of the animals. Serum was prepared using Microvette® 500 Z-Gel (Sarstedt, Nümbrecht, Germany). The serum samples were stored at −80° C. until the beginning of the alpha1AT concentration measurements.
alpha1AT concentrations were detected using a commercially available alpha1AT-ELISA (Immundiagnostik, Bensheim, Germany) following the manufacturers instructions.

| Molecule | Plasma half-life in mice [h] |
| --- | --- |
| A1AT: rh A1AT provided by GTC Biotherapeutics Inc., lot No. 080604A; starting material for the conjugation [Example A1AT] | 1.2 |
| HES-A1AT-conjugate: conjugate of aldehydo-HES (A) and (B) (MW 57,000 D, DS 0.76) with rh A1AT, example 5.5 | 3.6 |
| Sample 3: plasma derived h alpha1 AT (SERVA Electrophoresis GmbH) [reference compound] | 3.2 |

System: mouse NFS-60 cells
Assay: Mitogenicity of G-CSF variants for mouse NFS-60 cells (Example 6.3)
Format: cell-based
Conditions: Conc. 5 pg/ml (G-CSF content), 3 days
Experimental: G-CSF is known for its specific effects on the proliferation, differentiation and activation of hematopoietic cells of the neutrophilic granulocyte lineage. The mitogenic capacity of G-CSF variants was tested using mouse NFS-60 cells (N. Shirafuji et al., Exp. Hematol. 1989, 17, 116-119). Cells grown in RPMI medium with 10% fetal calf serum (Gibco INVITROGEN GmbH, Karlsruhe, D) containing 5-10% WEHI-3B (DSMZ, Braunschweig, D; cultivated as described by the DSMZ) conditioned medium as source of exogenous IL-3 were harvested by centrifugation, washed and aliquoted at 100,000 cells per well in a 24-well plate. Cells were allowed to adapt for 1 hour at 37° C. in RPMI medium without WEHI-3B conditioned media before G-CSF growth factor samples diluted in the same media were added. NFS-60 cells were exposed to purified G-CSF variants (purification according to examples 3A 1 und 2, protein quantification according to example 3B1):
“Mock incubation” (=reaction control, 197 mg/ml HES50/0.7, MW 47,000 D, DS 0.76, Supramol Parenteral Colloids GmbH, Rosbach Rodheim, Germany), for 3 days at 37° C. and then the cells were electronically counted (Casy TT Cell Counter, Schärfe System, Reutlingen, D).
In all cases, the amounts of protein given in the table below and FIG. 21 represent the G-CSF content of the conjugates only. […] All variants reached the same maximum stimulation level at a concentration of 250 pg/ml.

| Molecule | Proliferation of mouse NFS-60 cells, induced by G-CSF variants |
| --- | --- |
| B1 | 0.70 |
| B2 | 1.20 |
| B3 | 1.21 |
| B4 | 0.93 |
| B5 | 0.97 |
| B6 | 1.31 |
| B7 | 0.80 |

Same assay, conditions: Conc. 10 pg/ml (G-CSF content), 3 days

| Molecule | Proliferation of mouse NFS-60 cells, induced by G-CSF variants |
| --- | --- |
| B1 | 0.97 |
| B2 | 1.69 |
| B3 | 1.62 |
| B4 | 1.44 |
| B5 | 1.40 |
| B6 | 1.91 |
| B7 | 1.12 |

Same assay, conditions: Conc. 25 pg/ml (G-CSF content), 3 days

| Molecule | Proliferation of mouse NFS-60 cells, induced by G-CSF variants |
| --- | --- |
| B1 | 1.68 |
| B2 | 2.33 |
| B3 | 2.28 |
| B4 | 2.14 |
| B5 | 2.17 |
| B6 | 2.38 |
| B7 | 1.83 |

Same assay, conditions: Conc. 50 pg/ml (G-CSF content), 3 days

| Molecule | Proliferation of mouse NFS-60 cells, induced by G-CSF variants |
| --- | --- |
| B1 | 2.15 |
| B2 | 2.49 |
| B3 | 2.50 |
| B4 | 2.41 |
| B5 | 2.67 |
| B6 | 2.47 |
| B7 | 2.25 |

Same assay, conditions: Conc. 250 pg/ml (G-CSF content), 3 days

| Molecule | Proliferation of mouse NFS-60 cells, induced by G-CSF variants |
| --- | --- |
| B1 | 2.32 |
| B2 | 2.41 |
| B3 | 2.60 |
| B4 | 2.41 |
| B5 | 2.75 |
| B6 | 2.41 |
| B7 | 2.33 |

System: not listed separately
Assay: In vivo half-life of G-CSF samples in mice (ELISA of plasma)
Conditions: 100 μg per kg i.v. tail vein, female BALB/c mice
Experimental: Female mice BALB/cOlaHsd (Harlan GmbH/Borchen) were used. On the day of administration, the is weights of the animals were measured (19-22 g). 100 μg per kg body weight of the chemically modified rh-G-CSF sample as prepared in Example 6.2(b) as well as Neupogen® and Neulasta® (Amgen) samples were each injected intravenously in the tail vein of nine mice. At 1, 3, 6, 11, 22, 30, 49, 72 hours after injection (see table below), samples of approx. 150 μl whole blood were taken from the tail vein or the retrobulbar venous plexus from 3 mice of the respective group using capillaries containing sodium-heparin (Hirschmann, Eberstadt) and stored on ice until preparation of plasma.
Whole blood was centrifuged for 10 minutes at 2000 g. Plasma was transferred to another tube and recentrifuged for 5 min at 3500 g. Aliquots were stored at −80° C. until the day of analysis. The amount of G-CSF in the plasma samples were quantified by utilizing a ELISA (R&D GambH, Wiesbaden) method, following the instruction of the manufacturer.

| Molecule | half-life [h] |
| --- | --- |
| B1 | 5.1 |
| B2 | 1.2 |
| B7 | 5.2 |

System: normocythaemic mouse system
Assay: EPO-bioassay in the normocythaemic mouse system
Format: in vivo
Conditions: mouse, in vivo
Experimental: Quantitative determination of EPO protein was performed by measuring UV absorption at 280 nm according to the Eur. Phar. (European Pharmacopeia 4, Monography 01/2002: 1316: erythropoietin concentrated solution) in a cuvette with 1 cm path length. In addition, EPO was quantitated by applying a RP-HPLC method using a RP-C4 column (Vydac Protein C4, Cat.#214TP5410, Grace Vydac, Ca, US); the HPLC method was calibrated using the erythropoietin BRP 1 reference standard (European Pharmacopeia, Conseil de l'Europe B.P. 907-F67029, Strasbourg Cedex 1).
The EPO-bioassay in the normocythaemic mouse system was performed according to the procedures described in the European Pharmacopeia 4, Monography 01/2002:1316: Erythropoietin concentrated solution and Ph. Eur. Chapter 5.3: “Statistical Analysis of Results of Biological Assays and Tests”; For the HES-modified EPO according to example 7.3 a value for the specific activity of 418 500 units per mg EPO of protein was measured indicating an approximately 4-5 fold higher specific activity when compared to the EPO starting material.

| Molecule | Calculated specific activity of EPO sample (based on A280 and RP-HPLC determination) [U/mg] | higher specific activity when compared to the EPO starting material |
| --- | --- | --- |
| EPO HES according to example 7.3: recombinant human EPO conjugated with aldehydo-HES of example 7.2 (MW 57,000 D, DS 0.76) by reductive amination | 418500 | 4-5 fold |
| EPO starting material (Reaction control A): EPO reacted with aldehydo-HES without sodium cyanoborohydride (example 7.4) | 88500 |  |
| EPO starting material (not modified): recombinant human EPO, essentially same characteristics as Erypo or NeoRecormon | 89000 |  |

Same assay, conditions: per mg EPO of protein

| Molecule | specific activity |
| --- | --- |
| EPO HES according to example 7.3: recombinant human EPO conjugated with aldehydo-HES of example 7.2 (MW 57,000 D, DS 0.76) by reductive amination | 418 500 units per mg |
